The values that follow are results of earlier work, collected in PMC7114193.

This data set has as its target ACE2 (Homo sapiens) (UniProt Q9BYF1).

Chain of ACE2 (Homo sapiens) (Q9BYF1 18-740): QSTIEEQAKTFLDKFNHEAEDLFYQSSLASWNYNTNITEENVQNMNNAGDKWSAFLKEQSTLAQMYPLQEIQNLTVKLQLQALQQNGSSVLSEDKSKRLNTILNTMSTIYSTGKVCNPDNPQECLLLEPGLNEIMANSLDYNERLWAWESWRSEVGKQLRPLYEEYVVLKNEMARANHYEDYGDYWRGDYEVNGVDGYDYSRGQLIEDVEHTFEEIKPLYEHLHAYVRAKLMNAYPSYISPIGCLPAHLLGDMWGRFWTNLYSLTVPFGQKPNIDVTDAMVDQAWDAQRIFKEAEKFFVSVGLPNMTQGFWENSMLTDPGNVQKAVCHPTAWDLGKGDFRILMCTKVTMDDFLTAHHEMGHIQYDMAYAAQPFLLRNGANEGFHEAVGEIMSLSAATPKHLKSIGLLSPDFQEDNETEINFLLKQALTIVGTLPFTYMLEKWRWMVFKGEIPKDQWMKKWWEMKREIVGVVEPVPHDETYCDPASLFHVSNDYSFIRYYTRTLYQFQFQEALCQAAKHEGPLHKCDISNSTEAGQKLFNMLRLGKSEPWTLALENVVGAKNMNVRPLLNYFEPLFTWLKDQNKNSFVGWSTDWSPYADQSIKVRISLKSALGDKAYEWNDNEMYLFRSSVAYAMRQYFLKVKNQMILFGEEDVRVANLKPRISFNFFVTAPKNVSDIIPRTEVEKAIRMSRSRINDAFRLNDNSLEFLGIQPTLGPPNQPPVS

As to RBD-Fc 318-510 (from UniProt P59594), the equilibrium dissociation constant (Kd) (commonly a measure of binding affinity in units of concentration) is 10 nM.
